Consider 1 substance from US20040203067.

The data set concerns the target STAT-3 (endogenous, in 32Dcl3-derived cells) (UniProt P42227).

Sequence of STAT-3 (endogenous, in 32Dcl3-derived cells) (P42227 2-770): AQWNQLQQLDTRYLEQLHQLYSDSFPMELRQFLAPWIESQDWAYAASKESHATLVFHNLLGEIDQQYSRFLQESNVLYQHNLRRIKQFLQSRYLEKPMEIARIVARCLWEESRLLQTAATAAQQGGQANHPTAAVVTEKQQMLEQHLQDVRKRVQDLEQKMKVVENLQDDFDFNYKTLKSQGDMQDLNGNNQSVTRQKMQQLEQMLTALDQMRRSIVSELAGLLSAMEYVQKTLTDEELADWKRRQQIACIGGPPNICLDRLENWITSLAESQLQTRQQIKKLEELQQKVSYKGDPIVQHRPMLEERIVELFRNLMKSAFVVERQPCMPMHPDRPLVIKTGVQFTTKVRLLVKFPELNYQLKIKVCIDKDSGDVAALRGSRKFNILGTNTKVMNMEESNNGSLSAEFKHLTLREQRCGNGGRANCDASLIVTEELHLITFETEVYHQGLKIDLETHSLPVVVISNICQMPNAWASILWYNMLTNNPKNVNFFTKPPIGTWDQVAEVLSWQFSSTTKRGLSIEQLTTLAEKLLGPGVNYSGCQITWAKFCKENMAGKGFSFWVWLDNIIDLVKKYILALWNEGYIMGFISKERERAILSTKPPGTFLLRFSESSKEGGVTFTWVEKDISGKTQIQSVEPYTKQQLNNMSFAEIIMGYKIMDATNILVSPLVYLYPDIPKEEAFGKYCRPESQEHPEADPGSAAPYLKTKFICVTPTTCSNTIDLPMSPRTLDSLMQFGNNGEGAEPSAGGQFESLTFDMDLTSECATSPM

As to “c-Src (endogenous, activated, in IL-3 stimulated 32Dcl3 cells)”, the “tyrosine phosphorylation of STAT-3 (4G10 Western blot of STAT-3 immunoprecipitates)” value is given as “phosphorylation of STAT-3 following IL-3 stimulation of 32Dcl3 cells is blocked by AMSrc”.
